A short description of the data set: soluble fraction after stress (log2 fold change); higher = more stays soluble; pooled small domains, quantitative proteomics. Particulars: stress: pH 4. The essentials:
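Values are log2 fold changes, and higher ones mean more of the domain stayed soluble. Each fold change reflects the soluble amount of a domain after acid stress and is taken as a measure of aggregation propensity. The stress was pH 4, applied to pooled custom libraries of small protein domains analysed by high-throughput quantitative proteomics.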
Turning to “HMSVRPMVEILRVVGSPSPVWVTWARNRAAWLYETGIRPQQRLRMADGTEVLIRLVGEFAHILVVGG”, the “soluble fraction (log2)” value was found to be 0.0642.

On to “HMSVSATQMDAFVRQLRARLSSADGLDDAARLVRQDLEPFLGRFSDETERDFAAAIEQVRGSIRPVEI”, for which the “soluble fraction (log2)” value is -1.73.

For the sequence “HMSVSEAELAEKYHADDLEALKSGKLHEFQENLIDRNGKKYTVQTMKDILTLSDGTRLLLGIGLD”, the “soluble fraction (log2)” value was -0.0916.

As to “HMSVTDDQLRVFTNKSGTKIKAKIVEVSDDKVKLIRDDNKKFIVPINSLSEEDQDYLRDWVSNEAVEP”, the “soluble fraction (log2)” value was -0.0786.

“HMSVTIDAGGKVYLQESEIADDQLVPRLVAISNNGYDKPIYLRADKTVGYGRVAEVMSLLNAAGFTKLVLV”: the “soluble fraction (log2)” value is -0.244.

Regarding “HMSVTRELMLVKVKVTPEQRAGVSAIVDIFRANIIDVGKESMIIELTGNKSKLEAFIDLLDGYEILELART”, the “soluble fraction (log2)” value is -0.865.

As to “HMSVTVPDVKRMQAEDAKALLSRYRLRSEVIDSVYVDNIPRGAVVEQIPRENSSVKENRIVFLTINSN”, the “soluble fraction (log2)” value is -0.546.

With “HMSVTYRYSYVYNGNTYSDGWSVRRAIENNENKRFGPEPSDLDHEAQKQARVTFWAEHGVEYKEQEVV”, the “soluble fraction (log2)” value was -0.423.

“HMSVYIGVDQAKSIAAEHAGLSNSAVTFSKAKLENDDGMTVYEVEFFYQGTEYDYKIDASTGSILEYDLDR”: the “soluble fraction (log2)” value is -0.0157.

As to “HMSWEDSLLKQAREIIDMYPQKRSAVGPLLHLAQSKDGYISDDSISVISKLVGITEVQLKSVSTFYSMYK”, the “soluble fraction (log2)” value was -1.23.

Take “HMSWEELLEHLEKAAERGEEVRIAGVTLHDEEDFKRALRWLKEWL”: the “soluble fraction (log2)” value was -1.47.

“HMSYIGEEKAKSIAVSNVKGAGTNNVVKVEFDYDDGRAVYEVKVVYNAMEYEFEIDASNGKILSRDAESIY”: the “soluble fraction (log2)” value is -0.027.

As to “HMSYKFDSLAIILNKLDGKETVNVSSLSDELEVSARTVHRYIGTLQVAGFPIEYDKTKNSYIFSEGYTL”, the “soluble fraction (log2)” value was -1.05.

As to “HMSYQFKIKNNAAVEVTVSEKNNLLGSTYGDKATVAAGMEKNVTFYTDKPDVVVDTNGNFTITVHDKEIII”, the “soluble fraction (log2)” value is -0.221.

For the sequence “HMSYSYIYNYALKVKMDISSTGGKKPYAYYYYDHSYKLAEEILSLSEETESIELQNKYDELKDFYENP”, the “soluble fraction (log2)” value was -1.04.

As to “HMSYTWHDMYLLAQEYQKEHGNLIIPRNYKGKNGLNLGYWLYKEKLKYRQGKLAPEKIIALEHIGIVWT”, the “soluble fraction (log2)” value amounted to 0.22.

Take “HMSYYKEMIRLADSIADKAHEGQTDRNGWPYISHPRRVALGARKLVSEMASSTSPDTSLEELKAEVQIVAL”: the “soluble fraction (log2)” value is 0.00833.

As for “HMTAAPEVRVEGLFKGAAVLKIDGQQVMLKKGRSHSSGVTLVDANAHRAIVEIDGQRHELALHMA”, the “soluble fraction (log2)” value worked out at 0.0925.

Take “HMTADIRFLNSRKFYIYKVEKGETLFSISQKFNIPQEEIIQFNKDINQQGLKAKTKLWVPAYSWL”: the “soluble fraction (log2)” value is -0.43.

Regarding “HMTAGTGIAYSEFRSKVQEGQVKDVAIAPDRITGTLSSGQKFSTVPVNDPGLPKMLDDFNVKYSGQA”, the “soluble fraction (log2)” value came to 0.22.

Regarding “HMTAIWKTITATLTHDIATGKYAPGDRLPTEAQLAARFGVNRHTVRRAISDMNESGLTYSRRGAGVFVAQ”, the “soluble fraction (log2)” value was at least 0.43.

As to “HMTALAVGDRVKMDKSATIYGTMRKFAAWVYATKLYVRGIDGNRVVVSTLKSGAITGAVDKKHLTK”, the “soluble fraction (log2)” value was -0.0515.

In the case of “HMTAMDTQQKKLIIMYHDIHRLRNVEHFTIQRIADHLLLNFRTVKKFLEMTQEEFDKFSENRW”, the “soluble fraction (log2)” value was -0.0481.

For the sequence “HMTANPSTEEIMARVEAIPLPIKRLPPGQIVQAQTVAATVLRSNPGLDLAKAWKLAYATVTGQE”, the “soluble fraction (log2)” value is -0.00256.

“HMTANTQVENIRLELQRYMDEHGISQVTVARGIGKTHPVISQFLNNKYPGDVEEVARAIESWLTKQHEKAA”: the “soluble fraction (log2)” value was 0.381.

For the sequence “HMTAPELGIRQDGNTLVIFWPSSVTGYVLKSADAVDTPPASWTSVTHTTVGDEHRAEITPTGNSRFFRLV”, the “soluble fraction (log2)” value was -0.492.

As for “HMTAPQAQDYARVPDVLGLDMRESAQALRLDGFEMNAQGDGLAARQSPIGGSYAPEGTQVLVTFEM”, the “soluble fraction (log2)” value is -0.0592.

Take “HMTAQLAAQERTHALDMFMGGYKFSSKPAENGVRAEFEKKNFTLEDGKFLGGDEFMKSLMENDDYKGAFV”: the “soluble fraction (log2)” value was -0.509.

For “HMTASKSTVSTPEKVVYHIVFPKETKYSIAKKYGITIEELEKRNPEIIPSLSVGQKLVIKGTAPK”, the “soluble fraction (log2)” value came to 0.173.

For the sequence “HMTATDRQLQLIAYTAARLMAEQGIADFNAAKRKAIQTLGLPNNAKLPGNADVEAQLRAYQRIF”, the “soluble fraction (log2)” value came to 0.0539.

For the sequence “HMTATKDLPFSTFITEVEKGNITSVDIKGNQIEGTFSNGAKFKTYSPNYPNLVERLADKGVAISAGPS”, the “soluble fraction (log2)” value was found to be 0.141.

Turning to “HMTAVPADVETVTGFTALDRAGLDTLLARLGLAMDLEDLSFLQAYFRDTERRDPTLTEIRVVDTYWSDH”, the “soluble fraction (log2)” value is -1.44.

Turning to “HMTDAEQHEALLFKQVVDGLPQTLRDTFVLSRHAGMTYAEISAHTGTPIKTVESRMAKALELIAQRMR”, the “soluble fraction (log2)” value was 0.0158.

On to “HMTDDALIGKTAQVTVAIKPGSVGQITARVGDERVERLARASADAEIAAGSLVTIKSIAGDSVIVAPE”, for which the “soluble fraction (log2)” value came to 0.22.

As to “HMTDDPGLSRAENRELQTLLLDRGHDIGQPDGLIGAKTRAAIRAEQSRLNMPVNGRGGQKLLRALRL”, the “soluble fraction (log2)” value was -0.46.

With “HMTDFLKTRIDTLGLSTRTLNALSEANVRTIGGIARKKQEDLLEIDGIGEKGIQEIKKMLGEYGITL”, the “soluble fraction (log2)” value is -0.52.

As to “HMTDFSDLSFKYNSEEKDVLNSINLKINGGEMTSLVGHSGAGKTTILNLIPRFYEKSKGDISIDGQSIY”, the “soluble fraction (log2)” value was -0.172.

With “HMTDGLTVPMQGVVIRYKAKKGDKVAVGDAVAVLEAMKMEQNIFANKSGTIKEIYIKEGTTVTPGDVLMSI”, the “soluble fraction (log2)” value was -0.89.

With “HMTDLNDTQIKILELLSADASLSAAKMAGQLGIAGRNVEANIKKLKEKGILIRHGSPKSGYWEIVN”, the “soluble fraction (log2)” value was 0.0328.

Turning to “HMTDNSTTTIRNLKIEWLLEEIRNAVRTGVSVDAAVERISNNPFVKPPEDLLNEARIIFLQNAGQI”, the “soluble fraction (log2)” value was -0.848.

Turning to “HMTDPVLYEERDDIAIITINRPEKKNTLTDAVIQGIADGIDAATKSADVVAVVLRGAGDTLTAGYDLTA”, the “soluble fraction (log2)” value is -1.28.

Take “HMTDSDTQDIDVGELRVGHFVFLDLSWIRHPFPLSSFKIQSAEQIKTIRSLGLRRIRYSPGRSGP”: the “soluble fraction (log2)” value is -0.882.

Consider “HMTDSSEILEAALKEAEDAAHEVLNGTFSVQLEPQKAYIRRLQHMLIDRMNLSSTSKGKEPYRSLLVYR”, for which the “soluble fraction (log2)” value is -0.601.

As to “HMTDTDVLSSRLSALSSGRTSAVRLRDGVLSLVLDVGGLSIEARKAMTTAIESTARATPGVEAVRIAET”, the “soluble fraction (log2)” value was found to be 0.278.

Take “HMTDTSFPRLGAPEEELLSFLAKWEIDAEDAHYTKFSLYYQSTGKMMRDWKATWRAWKERQSELNAQR”: the “soluble fraction (log2)” value is -1.05.

In the case of “HMTDVGLEAAKAAALKHAGLSADQVTGLTAKLDWDDGQRVYEVDFWQGSTEYEYEINADGTVRQYESEAH”, the “soluble fraction (log2)” value is -0.469.

For “HMTDVRFIDIPVTEHHPWNGMKVRDLQLPPGTLLVFLSHPGEKNTVPHGETVLRSGDVLVLGATAYTGQ”, the “soluble fraction (log2)” value was -0.681.

Turning to “HMTDVRFISIPIQKEHPWNRKLVSELNLPPGTLLVFLRRTGENIVPNGKTMIQEGDVLVLGASAYR”, the “soluble fraction (log2)” value is -1.04.

As to “HMTEALEFTVEDLRMAGLVNSSFSRRRRELFSEKLGIGYGNGKSLLKKLNGYGITREEFNGAIQSLSD”, the “soluble fraction (log2)” value was -1.3.

Take “HMTEIILTARSGRHAVRHRLEGLGYTLTPEELERVHQRFLAVADAKKEVFDEDLHALMADERGT”: the “soluble fraction (log2)” value was -0.467.

Take “HMTEKMILKWKEALERMNDDFTTKDWLNVVIHEMGKSERTAYGWLSDMKRSGIIKDLGYGSWLKVLE”: the “soluble fraction (log2)” value was -0.2.

Consider “HMTEKPTREAHILDQLARDGGVLVAALSRELGVSEVTIRSDLRDLEAAGLLQRTHGGAQASSFQTVL”, for which the “soluble fraction (log2)” value is -0.48.

Regarding “HMTELNNTQRAAVLLLALDEDSAAEVFKHLSAREVQEVSQEMAKLGNISHDQMRQVLDDFYDESEQF”, the “soluble fraction (log2)” value is -1.01.

In the case of “HMTELPLTPRSKRILEMSALEARRLNHSYIGTEHLLMAIIRDGDGVAAKILESLGVNLPNFYTDTVRSIE”, the “soluble fraction (log2)” value is -0.0691.

Consider “HMTELSLSEQAYQQLRRMIVRLDFAPGDVLREEALQEALGMSRTPIREALQRLAREHFVTVIPRRGMFVS”, for which the “soluble fraction (log2)” value was -1.22.

Take “HMTELVIPDYFSKALAKNKKAKQVFEAFAYSHRKEYLQWITEAKTEETRNKRMATAIEWIAEGKGRNWKYA”: the “soluble fraction (log2)” value was at least 0.43.

“HMTEPIESVTTIAGRRIPYRLVRSLRARRMRMTIKESQVTVTLPRGVPLGEAERFLQQNAAWLFKQLDKP”: the “soluble fraction (log2)” value came out at 0.162.

Regarding “HMTESIHVGSKVTINNNAKRWATGQNIYSGVKGKTYTVIQMNGSRLLLDKVISWINKGDVHLPGS”, the “soluble fraction (log2)” value is 0.0896.

Take “HMTESIKRDEAIRLNNGRIYTLDAAKIGTNEYEVMLFNPRTGEEIDSAKTSTEADAILQFDRLRRMYHR”: the “soluble fraction (log2)” value is -0.151.

“HMTETELYDEVNRLIGLHLSERDRMILIMRDRDEFEIDAIAARTGLSEGNIRLILSRARRTVREAYRNNI”: the “soluble fraction (log2)” value is -1.6.

On to “HMTETNSVTINERLTLYRRSRSGRWQARVKLNTGEWHRFSTGTADFEKAKESAHRELHNVGFRAENNLPQ”, for which the “soluble fraction (log2)” value was -0.174.

For “HMTFDWAAYEISEKEIRVMSLVAEGFSNKEIAQELFLSEGTVRNYISNILEKLGLRDRTQLAVHYLKAV”, the “soluble fraction (log2)” value is -1.52.

Consider “HMTFENMFIENSGETLDREFLVENLRGISWQSYDRSVDVLVSRLRGKLGETPNNTRFIKTIHGVGYKFIGE”, for which the “soluble fraction (log2)” value is -0.472.

As for “HMTFGENLIRLRRQQGLSQEQLGMRIGVSRQTVSKWELNDTTPEMEKLIALADLFGLSLDELTGRV”, the “soluble fraction (log2)” value was -0.392.

Take “HMTFNLDVDGDDQVTALGDGLMIIRKLFGATFAGDALTNKAISPDATRTTDEIHAYIEKGITSGVLD”: the “soluble fraction (log2)” value was -0.288.

Turning to “HMTFPAILRELLEKHPQTGKRTTLKELGEAVGTRQQSISLYRNGDTQPSPDILVRIAAFFGVSVDYLL”, the “soluble fraction (log2)” value was -0.198.

Take “HMTFPYTSLKDAPKNMKEIDGVPLTLDQVNQIAKVADSIGVSKEKNGYAIAKSQFKKSHHIENNRWVKNK”: the “soluble fraction (log2)” value amounted to 0.126.

Take “HMTFVHTQIEATKEWIISHPLDKHPAVAVVDSAGSIVIGEVDYISKSIVRLRFTAEFSGKAYL”: the “soluble fraction (log2)” value is -1.79.
